Reference: PMC12038006, “Structure and mechanism of a mycobacterial isoniazid efflux pump MsRv1273c/72c with a degenerate nucleotide-binding site” (Nature Communications, 2025)

Experiments:
[1] = target: MsRv1272c (MSMEG_5009) from Mycobacterium smegmatis (Mycobacterium smegmatis (Msm) mc2 155) (UniProt A0R272)
[2] = target: MsRv1272c (MSMEG_5009) from Mycobacterium smegmatis (Mycobacterium smegmatis (Msm) mc2 155) (UniProt A0R272); experiment: SEC

“MsRv1273c (MSMEG_5008) from Mycobacterium smegmatis (from UniProt A0R271 1-578) (natural protein)” was tested, and the basal ATPase activity of the MsRv1273c/72c complex in peptidiscs (malachite green) (nM Pi min^–1 mg^–1) [1] was 148, the basal ATPase activity of the MsRv1273c/72c complex in proteoliposomes (malachite green) (nM Pi min^–1 mg^–1) [1] was 181 and the stoichiometry N [2] was 1.
